{"source": "patent US20260049148A1", "about": "“PROTEASE-CLEAVABLE MOIETIES AND METHODS OF USE THEREOF” (CytomX Therapeutics, Inc., priority 2022, published 2026)", "assay_in_all_cases": "Internally quenched peptide probe cleavage assay", "format_in_all_cases": "biochemical", "settings_in_all_cases": "20 μM internally quenched peptide probe, 20 nM protease, 37° C.", "key": {"[1]": {"target": "MMP9 (Homo sapiens, UniProt P14780)", "sequence (P14780 94-707)": "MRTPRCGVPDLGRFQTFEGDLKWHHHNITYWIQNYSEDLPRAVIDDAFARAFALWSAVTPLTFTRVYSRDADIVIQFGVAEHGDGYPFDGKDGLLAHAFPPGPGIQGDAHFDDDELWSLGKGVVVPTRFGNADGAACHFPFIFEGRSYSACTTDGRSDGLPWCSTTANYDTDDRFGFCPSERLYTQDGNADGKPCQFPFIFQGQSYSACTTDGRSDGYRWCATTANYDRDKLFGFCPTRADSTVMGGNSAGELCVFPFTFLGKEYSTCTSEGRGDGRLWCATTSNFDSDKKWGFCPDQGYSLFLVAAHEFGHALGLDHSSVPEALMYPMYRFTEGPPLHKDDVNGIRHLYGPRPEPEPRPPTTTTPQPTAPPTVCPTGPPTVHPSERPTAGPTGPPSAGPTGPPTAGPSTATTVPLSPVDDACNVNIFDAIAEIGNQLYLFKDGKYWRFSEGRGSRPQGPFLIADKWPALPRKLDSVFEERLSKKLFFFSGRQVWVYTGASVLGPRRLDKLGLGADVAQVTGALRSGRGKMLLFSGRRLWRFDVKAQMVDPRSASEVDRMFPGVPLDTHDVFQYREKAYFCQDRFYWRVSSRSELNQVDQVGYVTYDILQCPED", "source_text": "(§1) The study provided herein evaluated the cleavability kinetics (i.e., pM/s and kcat/KM (M^−1s^−1)) of CMs with matrix metalloprotease (MMP) 2 (MMP2), MMP9, and MMP14. The CM AIALY (SEQ ID NO: 5) was presented in an internally quenched peptide probe format, rather than included in an activatable antibody format. In the internally quenched probe, the CM sequence was positioned between a 7-methoxycoumarin-4-acetyl (MCA) fluorophore and a 2,4-dinitrophenyl (DNP) quencher such that cleavage of the CM sequence produces a fluorescence signal. The probe was of the following design: (MCA)-[…](DNP)-D-Arg (SEQ ID NO: 160). The cleavage rates (pM/s) were measured using 20 μM internally quenched peptide probe and 20 nM MMP2, MMP9, or MMP14. Cleavability kinetics (i.e., pM/s and kcat/KM (M^−1s^−1)) were determined in 96- or 384-well plate format at 37° C. in the following buffers: 50 mM Tris-HCl (pH 7.5), 10 mM CaCl2), 150 mM NaCl, 0.05% (w/v) Brij-35 for MMP2 and MMP9 or 50 mM HEPES (pH 6.8), 10 mM CaCl2), 0.5 mM MgCl2, 0.05% (w/v) Brij-35 for MMP14. Cleavability kinetics were determined on an Infinite 200 PRO (Tecan) multimode plate reader using a fluorescence excitation wavelength of 320 nm and an emission wavelength of 405 nm."}, "[2]": {"target": "T1, MMP2 (Homo sapiens, UniProt P08253)", "T1 sequence (P08253 110-660)": "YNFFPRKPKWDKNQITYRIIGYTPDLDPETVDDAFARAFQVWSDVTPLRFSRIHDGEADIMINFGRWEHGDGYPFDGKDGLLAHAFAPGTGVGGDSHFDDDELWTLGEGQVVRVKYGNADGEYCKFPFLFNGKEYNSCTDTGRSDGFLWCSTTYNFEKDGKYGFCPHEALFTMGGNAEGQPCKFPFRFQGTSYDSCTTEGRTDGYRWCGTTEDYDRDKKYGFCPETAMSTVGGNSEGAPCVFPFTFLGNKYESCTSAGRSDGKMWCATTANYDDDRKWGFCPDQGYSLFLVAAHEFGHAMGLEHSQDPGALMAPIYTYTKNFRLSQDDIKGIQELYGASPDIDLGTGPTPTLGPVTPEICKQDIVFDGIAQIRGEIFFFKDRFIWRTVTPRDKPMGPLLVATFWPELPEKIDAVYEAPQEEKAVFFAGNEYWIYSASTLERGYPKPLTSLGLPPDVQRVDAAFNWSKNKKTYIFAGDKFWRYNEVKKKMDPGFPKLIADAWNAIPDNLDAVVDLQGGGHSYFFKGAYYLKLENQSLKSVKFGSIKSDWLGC", "source_text": "as §1"}, "[3]": {"target": "MMP14 (Homo sapiens, UniProt P50281)", "source_text": "as §1"}}, "note": "Square brackets hold non-standard residues; d marks the D form. Ends that are not written are not given here. * marks the point of attachment. Dnp = O=[N+]([O-])c1ccc(*)c([N+](=O)[O-])c1; Mca = COc1ccc2c(CC(=O)*)cc(=O)oc2c1"}
{"substance": "(MCA)-Gly-Ser-Ala-Ile-Ala-Leu-Tyr-Gly-Gly-Ser-Lys (DNP)-D-Arg (Mca-GSAIALYGGSK(Dnp)[dR])", "values": [{"measurement": "Probe Cleavage (pM/s) MMP9", "setting": "[1]", "result": 87.7, "unit": "pM/s"}, {"measurement": "Probe Cleavage (pM/s) MMP2", "setting": "[2]", "result": 135, "unit": "pM/s"}, {"measurement": "Probe Cleavage (pM/s) MMP14", "setting": "[3]", "result": 145, "unit": "pM/s"}]}
